Source: patent publication US20250018037A1 (SEOUL NATIONAL UNIVERSITY R AND DB FOUNDATION, published 2025)
No end group written: not given here. *: point of attachment. Biotin = O=C1N[C@H]2[C@H](CS[C@H]2CCCCC(=O)*)N1

Experiments:
[1] = molecular target: T1, Human CD40 on cells (Raji, Daudi, IM-9) (human, UniProt P25942 21-277); test: flow cytometry on Raji cells, anti-Myc staining (axis Myc); number not labelled as MFI on the sheet; 2nd Ab only -30.7
T1 construct: whole, on cells; also called cell surface CD40; hCD40
T1 sequence (P25942 21-277): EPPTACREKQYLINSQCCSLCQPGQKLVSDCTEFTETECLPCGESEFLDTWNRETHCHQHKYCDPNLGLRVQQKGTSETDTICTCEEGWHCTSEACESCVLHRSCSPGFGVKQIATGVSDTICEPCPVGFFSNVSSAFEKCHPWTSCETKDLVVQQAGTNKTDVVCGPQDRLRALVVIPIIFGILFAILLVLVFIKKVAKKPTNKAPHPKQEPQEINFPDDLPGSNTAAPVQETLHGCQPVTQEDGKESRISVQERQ

[2] = molecular target: T2, BSA-conjugated c-Myc peptide (also: conjugated to BSA by thiol-maleimide reaction, thiol residue not given here); test: indirect ELISA after bio-panning against BSA-conjugated c-Myc peptide
T2 construct: also called the antigen
T2 peptide: EQKLISEEDL

[3] = molecular target: T3, Biotin conjugated 6×His peptide (also: biotin conjugated, site not given here); test: SPR (Biacore 8K): biotin 6×His peptide captured on immobilized streptavidin, scFv injected in 2-fold dilutions (6 curves)
T3 construct: also called histidine hexamer peptide
T3 peptide: HHHHHH
Source text: (§1) Since the murine anti-His antibody had decreased binding affinity against 6×His peptide after humanization, affinity maturation was further performed to increase it and chicken anti-CD40 antibody (2B1) was only humanized. Serial dilution antibodies at 6 concentrations were used to characterize the kinetics of antibody-antigen binding by SPR. […] So, there was not affinity loss against their antigen after humanization (FIG. 22B).
(§2) A Biacore 8K SPR system (Cytiva) equipped with CM5 sensor chip (Cytiva) was used to generate binding kinetic rate and affinity constants. To prepare the capture surfaces for anti-His antibodies, streptavidin was immobilized, followed by biotin conjugated 6×His peptide was captured. The antibodies were 2-fold serial diluted with 1×PBS, then injected at a flow rate of 30 μL/min for 3 minutes, allowing 10 minutes dissociation phase. The surface was regenerated using 10 mM glycine, pH 1.5. The kinetics were analyzed using Biacore 8K evaluation software, version 1.0 (Cytiva). In case of anti-CD40 antibodies, anti-human Fc IgG (Jackson ImmunoResearch) was immobilized, and then CD40-hFc protein (Acro Biosystems, #CD0-H5253) was captured. The antibodies were 2-fold serial diluted with HBS-EP+ buffer (10 mm HEPES, 150 mm sodium chloride, 3 mm EDTA, 0.05% Polysorbate 20), then injected at a flow rate of 30 μL/min for 4 minutes, allowing >15 minutes dissociation phase.

[4] = molecular target: T4, biotin-labeled c-Myc peptide (Biotin-GGGGSEQKLISEEDL); test: flow cytometry of human T cells 8 days after transduction, stained with biotin-labeled c-Myc peptide plus streptavidin-PE; axis Myc CAR
T4 construct: It is not the BSA conjugate m23; also called biotin c-Myc peptide; stain for Myc CAR
T4 peptide: Biotin-GGGGSEQKLISEEDL
Experimental: After 24 h, the activated T cells were harvested, resuspended (1×10⁶/ml) in a TM media containing human IL-7, human IL-15, and the lentiviral concentrate, and cultured for two days for CAR transduction. After washing the transduced T cells, the cells were expanded in TM media with human IL-7 and human IL-15 for eight days before use. CAR expression on the cell surface was determined by flow cytometry using biotin-labeled 6×His peptide (Biotin-[…]; Peptron) for hHis CAR-T or biotin-labeled c-Myc peptide (Biotin-[…]; Peptron) for hMyc CAR-T and PE-labeled streptavidin (Biolegend).

[5] = molecular target: T5, CD40-hFc protein (Acro Biosystems, #CD0-H5253) (UniProt P25942 21-193); test: SPR (Biacore 8K): CD40-hFc captured on immobilized anti-human Fc IgG, scFv injected in 2-fold dilutions (6 curves)
T5 construct: Bought protein
T5 sequence (P25942 21-193 limits assumed): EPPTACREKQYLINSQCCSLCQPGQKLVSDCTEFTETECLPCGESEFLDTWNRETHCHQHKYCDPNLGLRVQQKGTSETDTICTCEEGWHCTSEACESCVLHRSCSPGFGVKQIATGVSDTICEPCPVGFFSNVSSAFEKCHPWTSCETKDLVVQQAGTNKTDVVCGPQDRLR
Source text: as §1, §2

B1: 2B1-Cκ-Myc (2B1-Cκ linked with C-terminal Myc peptide) (scFv)
scFv: QAALTQPSSVSANPGETVKITCSGGDSYAGSYYYGWFQQKAPGSAPVTVIYYNDKRPSDIPSRFSGSTSGSTSTLTITGVQAEDEAVYYCGSIDTSSGTGIFGAGTTLTVLGQSSRSSGGGGSSGGGGSAVTLDESGGGLQTPGGALSLVCKGSGFTFSSYQMFWVRQAPGKGLEYVAEISGSGLSTWYAPAVKGRATISRDNGQSTVRLQLNNLRAEDTGTYYCAKAAGSCGVGTCAGGIVDGIDAWGHGTEVIVSSTSGQAGQRTVAAPSVFIFPPSDEQLKSGTASVVCLLNNFYPREAKVQWKVDNALQSGNSQESVTEQDSKDSTYSLSSTLTLSKADYEKHKVYACEVTHQGLSSPVTKSFNRGESEQKLISEEDL
notes: also called 2B1-Ck-Myc; Myc peptide-tagged anti-hCD40 adaptor
In the case of B1, the MFI [1] is reported as 1860.

B2: Anti-Myc scFv clone 3A6 (scFv)
scFv: QAALTQPSSVSANLGGTVKITCSGGGGSDDGSYYYSWHQQKSPGSAPVTVIYENNNRPSDIPSRFSGSKSGSTATLTITGVQAEDEAVYYCGSRDSSYVDYVGIFGAGTTLTVLGQSSRSSGGGGSSGGGGSAVTLDESGGGLQTPGRALSLVCKASGFTFSSYDMAWVRQEPGKGLEYVASISRSGRYTRYGPAVKGRATISRDNGQSTVRLQLNNLRAEDTATYFCTRGGAVSIDTWGHGTEVIVSS
notes: Selected from a chicken scFv phage library by indirect ELISA; Later produced with an 8×His tag
B2: binds [2].

B3: 2B1-L1-Myc-Ck (scFv)
scFv: QAALTQPSSVSANPGETVKITCSGGDSYAGSYYYGWFQQKAPGSAPVTVIYYNDKRPSDIPSRFSGSTSGSTSTLTITGVQAEDEAVYYCGSIDTSSGTGIFGAGTTLTVLGQSSRSSGGGGSSGGGGSAVTLDESGGGLQTPGGALSLVCKGSGFTFSSYQMFWVRQAPGKGLEYVAEISGSGLSTWYAPAVKGRATISRDNGQSTVRLQLNNLRAEDTGTYYCAKAAGSCGVGTCAGGIVDGIDAWGHGTEVIVSSTSGQAGQGGGGSEQKLISEEDLRTVAAPSVFIFPPSDEQLKSGTASVVCLLNNFYPREAKVQWKVDNALQSGNSQESVTEQDSKDSTYSLSSTLTLSKADYEKHKVYACEVTHQGLSLPVTKSFNRGES
With B3 the MFI [1] was 2400.

B4: Anti-Myc scFv clone 8A9 (scFv)
scFv: QAALTQPSSVSANPGETVEITCSGGSSGYYGWHQQKSPGSAPVTVIYENTNRPSDIPSRFSGSKSGSTATLTITGVQADDEAVYFCGSYDSSSASGIFGAGTTLTVLGQSSRSSGGGGSSGGGGSAVTLDESGGGLQTPGGGLSLVCKASGFTFSSYDMAWVRQEPGKGLEYVASISRSGRYTRYGPAVKGRATISRDNGQSTVRLQLNNLRAEDTATYFCTRGGAVSIDTWGHGTEVIVSS
notes: Selected from a chicken scFv phage library by indirect ELISA
B4: binds [2].

B5: Anti-Myc scFv clone 7A1 (scFv)
scFv: QAALTQPSSVSVNPGETVKITCSGGGSSSYYGWYQQKSPGSAPVTLIYQNTNRPSNIPSRFSGSTSGSTGTLTITGVQAEDEAVYFCGSRDSSGDGIFGAGTTLTVLGQSSRSSGGGGSSGGGGSAVTLDESGGGLQTPGRALSLVCKASGFTFSSYDMAWVRQEPGKGLEYVASISRSGRYTRYGPAVKGRATISRDNGQSTVRLQLNNLRAEDTATYFCTRGGAVSIDTWGHGTEVIVSS
notes: as for B4
B5: binds [2].

B6: Murine anti-His scFv (scFv)
scFv: DILMTQTPSSLPVSLGDQASISCRSSQSIVHSNGNTYLEWYLQKPGQSPKLLIYKVSNRFSGVPDRFSGSGSGTDFTLKISRVEAEDLGVYYCFQGSHVPFTFGSGTKLEIKRGGGGSGGGGSGGGGSGGGGSQVQLQQSGPEDVKPGASVKISCKASGYTFTDYYMNWVKQSPGKGLEWIGDINPNNGGTSYNQKFKGRATLTVDKSSSTAYMELRSLTSEDSSVYYCESQSGAYWGQGTTVTVSA
notes: also called anti-His (3D5M) scFv
Work on B6 yielded a Kd [3] of 36.6 nM, a koff [3] of 0.00547 s⁻¹ and a kon [3] of 149000 M⁻¹ s⁻¹.

B7: 2B1-Ck-L1-Myc (scFv)
scFv: QAALTQPSSVSANPGETVKITCSGGDSYAGSYYYGWFQQKAPGSAPVTVIYYNDKRPSDIPSRFSGSTSGSTSTLTITGVQAEDEAVYYCGSIDTSSGTGIFGAGTTLTVLGQSSRSSGGGGSSGGGGSAVTLDESGGGLQTPGGALSLVCKGSGFTFSSYQMFWVRQAPGKGLEYVAEISGSGLSTWYAPAVKGRATISRDNGQSTVRLQLNNLRAEDTGTYYCAKAAGSCGVGTCAGGIVDGIDAWGHGTEVIVSSTSGQAGQRTVAAPSVFIFPPSDEQLKSGTASVVCLLNNFYPREAKVQWKVDNALQSGNSQESVTEQDSKDSTYSLSSTLTLSKADYEKHKVYACEVTHQGLSSPVTKSFNRGESGGGGSEQKLISEEDL
For B7, the MFI [1] was 1520.

B8: hMyc (8A9) CAR (8A9-BBz), on human T cells (other)
chain: LTQPSSVSANPGETVEITCSGGSSGYYGWHQQKSPGSAPVTVIYENTNRPSDIPSRFSGSKSGSTATLTITGVQADDEAVYFCGSYDSSSASGIFGAGTTLTVLGQSSRSSGGGGSSGGGGSAVTLDESGGGLQTPGGGLSLVCKASGFTFSSYDMAWVRQEPGKGLEYVASISRSGRYTRYGPAVKGRATISRDNGQSTVRLQLNNLRAEDTATYFCTRGGAVSIDTWGHGTEVIVSSTTTPAPRPPTPAPTIASQPLSLRPEACRPAAGGAVHTRGLDFACDIYIWAPLAGTCGVLLLSLVITLYCKRGRKKLLYIFKQPFMRPVQTTQEEDGCSCRFPEEEEGGCELRVKFSRSADAPAYKQGQNQLYNELNLGRREEYDVLDKRRGRDPEMGGKPRRKNPQEGLYNELQKDKMAEAYSEIGMKGERRRGKGHDGLYQGLSTATKDTYDALHMQALPPR
notes: also called hMyc CAR-T cells (8A9)
For B8, the “number over the gate bar (percent of cells in the gate)” value [4] was 21.9.

B9: hMyc (3A6) CAR (3A6-BBz), on human T cells (other)
chain: LTQPSSVSANLGGTVKITCSGGGGSDDGSYYYSWHQQKSPGSAPVTVIYENNNRPSDIPSRFSGSKSGSTATLTITGVQAEDEAVYYCGSRDSSYVDYVGIFGAGTTLTVLGQSSRSSGGGGSSGGGGSAVTLDESGGGLQTPGRALSLVCKASGFTFSSYDMAWVRQEPGKGLEYVASISRSGRYTRYGPAVKGRATISRDNGQSTVRLQLNNLRAEDTATYFCTRGGAVSIDTWGHGTEVIVSSTTTPAPRPPTPAPTIASQPLSLRPEACRPAAGGAVHTRGLDFACDIYIWAPLAGTCGVLLLSLVITLYCKRGRKKLLYIFKQPFMRPVQTTQEEDGCSCRFPEEEEGGCELRVKFSRSADAPAYKQGQNQLYNELNLGRREEYDVLDKRRGRDPEMGGKPRRKNPQEGLYNELQKDKMAEAYSEIGMKGERRRGKGHDGLYQGLSTATKDTYDALHMQALPPR
notes: also called hMyc CAR-T cells (3A6)
With B9 the “number over the gate bar (percent of cells in the gate)” value [4] was 38.9.

B10: Chicken anti-CD40 scFv (2B1) (scFv)
scFv: QAALTQPSSVSANPGETVKITCSGGDSYAGSYYYGWFQQKAPGSAPVTVIYYNDKRPSDIPSRFSGSTSGSTSTLTITGVQAEDEAVYYCGSIDTSSGTGIFGAGTTLTVLGQSSRSSGGGGSSGGGGSAVTLDESGGGLQTPGGALSLVCKGSGFTFSSYQMFWVRQAPGKGLEYVAEISGSGLSTWYAPAVKGRATISRDNGQSTVRLQLNNLRAEDTGTYYCAKAAGSCGVGTCAGGIVDGIDAWGHGTEVIVSS
notes: also called parental antibody of the humanized anti-CD40 scFv; 2B1 scFv
B10 gave a Kd [5] of 2.83 nM, a koff [5] of 0.00588 s⁻¹ and a kon [5] of 2.08e+06 M⁻¹ s⁻¹.

B11: 2B1-Ck-L2-Myc (scFv)
scFv: QAALTQPSSVSANPGETVKITCSGGDSYAGSYYYGWFQQKAPGSAPVTVIYYNDKRPSDIPSRFSGSTSGSTSTLTITGVQAEDEAVYYCGSIDTSSGTGIFGAGTTLTVLGQSSRSSGGGGSSGGGGSAVTLDESGGGLQTPGGALSLVCKGSGFTFSSYQMFWVRQAPGKGLEYVAEISGSGLSTWYAPAVKGRATISRDNGQSTVRLQLNNLRAEDTGTYYCAKAAGSCGVGTCAGGIVDGIDAWGHGTEVIVSSTSGQAGQRTVAAPSVFIFPPSDEQLKSGTASVVCLLNNFYPREAKVQWKVDNALQSGNSQESVTEQDSKDSTYSLSSTLTLSKADYEKHKVYACEVTHQGLSSPVTKSFNRGESGGGGSGGGSEQKLISEEDL
B11 showed an MFI [1] of 2070.

B12: hMyc (7A1) CAR (7A1-BBz), on human T cells (other)
chain: LTQPSSVSVNPGETVKITCSGGGSSSYYGWYQQKSPGSAPVTLIYQNTNRPSNIPSRFSGSTSGSTGTLTITGVQAEDEAVYFCGSRDSSGDGIFGAGTTLTVLGQSSRSSGGGGSSGGGGSAVTLDESGGGLQTPGRALSLVCKASGFTFSSYDMAWVRQEPGKGLEYVASISRSGRYTRYGPAVKGRATISRDNGQSTVRLQLNNLRAEDTATYFCTRGGAVSIDTWGHGTEVIVSSTTTPAPRPPTPAPTIASQPLSLRPEACRPAAGGAVHTRGLDFACDIYIWAPLAGTCGVLLLSLVITLYCKRGRKKLLYIFKQPFMRPVQTTQEEDGCSCRFPEEEEGGCELRVKFSRSADAPAYKQGQNQLYNELNLGRREEYDVLDKRRGRDPEMGGKPRRKNPQEGLYNELQKDKMAEAYSEIGMKGERRRGKGHDGLYQGLSTATKDTYDALHMQALPPR
notes: also called hMyc CAR-T cells (7A1)
With B12 the “number over the gate bar (percent of cells in the gate)” value [4] was 19.
